Assay results taken from patent US20200339680A1 (Alector, published 2020).

How the values were obtained:
human TMEM106B [1] = biological target: T1, human TMEM106B (human, UniProt Q9NUM4 2-274); experiment: FACS HEK+huTMEM 10 ug/ml;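 note: flow cytometric binding of purified mouse IgG antibodies to HEK293 cells transiently expressing human TMEM106B, read as median fluorescence intensity on live cells with propidium iodide-positive cells excluded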
T1 construct: full-length, transiently expressed on HEK293 cells, or natively expressed on HeLa, U251 and A549 cells (the cell is named under assay); also the source of the Pepscan peptides; also called huTMEM106B; huTMEM
Protocol: (§1) Purified anti-TMEM106B antibodies were evaluated for their binding affinity to various TMEM106B-expressing cell lines including HEK293 transiently transfected with human/cyno/mouse TMEM106B, as well as HeLa cells and A549 cells. Antibodies tested for this experiment were mouse IgGs purified from hybridoma supernatant. Affinity binding to cells was determined as follows. Briefly, 1×10\hat{ }5 cells were aliquoted per well in 96-well round bottom plates and incubated with 50 μL of purified anti-TMEM106B antibody at various concentrations (10× dilutions starting at 10 μg/ml) in FACS buffer (PBS+2% FBS+1 mM EDTA). […] Sorting was performed on a iQue (Intellicyt), with sort gates drawn to exclude dead (propidium iodide+) cells. Binding data was analyzed using median fluorescent intensity (MFI) and graphed in Prism. Values presented are MFI.

human TMEM106B [2] = biological target: T1, human TMEM106B; experiment: FACS HEK+huTMEM 0.1 ug/ml (2nd column so headed);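 note: flow cytometry binding of purified anti-TMEM106B mouse IgG to HEK293 cells transiently transfected with TMEM106B, read as median fluorescence intensity on live (propidium iodide-negative) cells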
Protocol: as §1

human TMEM106B [3] = biological target: T1, human TMEM106B; experiment: FACS U251
Protocol: (§2) All cells were cultured in either T75 or T150 flasks. […] The enzyme was quenched by addition of fresh media, and the cells were then distributed into 96-well plates for FACS analysis.
(§3) FACS analysis was performed as follows. Each cell type was aliquoted in 96-well round bottom plates (2×10^5 cells per well), washed once with FACS buffer (PBS+2% FBS+1 mM EDTA), and incubated with 50 μL of hybridoma supernatant or purified antibody (10 μg/ml in FACS buffer) on ice for 1 hour. […] Following this secondary incubation, the cells were again washed 2× with ice-cold FACS buffer and resuspended in a final volume of 50 μL of FACS buffer+0.25 μl/well propidium iodide (Fisher Scientific #4BDB556463). Analysis was performed on a FACSCanto system (BD Biosciences) or iQue (Intellicyt), with sort gates drawn to exclude dead (i.e., propidium iodide positive) cells.

human TMEM106B [4] = biological target: T1, human TMEM106B; experiment: FACS HEK+huTMEM 0.1 ug/ml;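 note: flow cytometry binding of purified mouse IgG antibodies to HEK293 cells transiently expressing TMEM106B, read as median fluorescence intensity on live cells (propidium iodide negative gating)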
Protocol: as §1

mouse TMEM106B = biological target: T2, mouse TMEM106B (mouse, UniProt Q80X71 2-275); experiment: FACS Neuro2a;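 note: flow cytometry of antibody binding to cells: hybridoma supernatant or purified antibody at 10 µg/ml, 1 h on ice, secondary detection, propidium iodide–positive dead cells gated out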
T2 construct: transiently expressed on HEK293 cells, or native on mouse Neuro2a cells; also called moTMEM106B; murine TMEM106B
Protocol: as §2, §3

human TMEM106B [5] = biological target: T1, human TMEM106B; experiment: FACS A549 1 ug/ml
human TMEM106B [6] = biological target: T1, human TMEM106B; experiment: FACS HEK+huTMEM 1.0 ug/ml;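 note: binding of purified mouse IgG antibodies to HEK293 cells transiently expressing human TMEM106B, read by flow cytometry as median fluorescence intensity of live, propidium iodide-negative cells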
Protocol: as §1

human TMEM106B [7] = biological target: T1, human TMEM106B; experiment: FACS A549;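 note: flow cytometry of cells incubated on ice for 1 h with hybridoma supernatant or purified antibody at 10 µg/mL, dead propidium iodide-positive cells gated out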
Protocol: as §2, §3

human TMEM106B [8] = biological target: T1, human TMEM106B; experiment: FACS HeLa
Protocol: as §2, §3

human TMEM106B [9] = biological target: T1, human TMEM106B; experiment: FACS A549 10 ug/ml
Protocol: as §1

Row | Binder | MFI (human TMEM106B [1]) | MFI (human TMEM106B [2]) | MFI (human TMEM106B [3]) | MFI (human TMEM106B [4]) | MFI (mouse TMEM106B) | MFI (human TMEM106B [5]) | MFI (human TMEM106B [6]) | MFI (human TMEM106B [7]) | MFI (human TMEM106B [8]) | MFI (human TMEM106B [9])
1 | TM-11 (antibody, V domains shown) VH: QVQLKQSGPGQVQPSQSLSITCTVSGFSLSDYGVHWVRQSPGKGLEWLGVIWNNGNTDYNAAFISRLSINKDNSKSQVFFKMTSLQADDTAIYYCVRSLRPLHFDYWGQGTTVTVSS VL: DIVMTQSPSSLTMSVGQKVTMHCKSSQSLLNSNNLQNYLAWYQQKPGQSPTLLVYFASIRESGVPDRFIGSGSGTDFTLTISSVQAEDLADYFCQQHYNTPFTFGSGTKLEIR | 57900 MFI | 4280 MFI | 866 MFI | 16200 MFI | 1040 MFI | 2870 MFI | 54600 MFI | 1340 MFI | 1870 MFI | 5580 MFI
2 | TM-12 (antibody, V domains shown) VH: EVQLQQSGAELMRPGASVKLSCTASGFNIQDYYMYWVKQRPEQGLEWIGRIDPEDGDAEYAPKFQGKATMTADTSSNTAYLQLSSLTSEDTAVYYCSTRVIYDGYYRTMDCWGQGTSVTVSS VL: DVLMTQIPLSLPVSLGDQASISCRSSQTIVHSNGNTYLEWYLKKPGQSPKLLIDKISNRFSGVPDRFSGSGSGTDFTLKISRVEAEDLGVYYCFQGSHVPYTFGGGTKLEIK | 75300 MFI | 3340 MFI | 1330 MFI | 19700 MFI | 3040 MFI | 3150 MFI | 77800 MFI | 1940 MFI | 2660 MFI | 4950 MFI
3 | TM-10 (antibody, V domains shown) VH: QVQLQQSGAELVKPGASVKISCKGSGYAFSSYWMNWVKQRPGKGLEWIGQIYPGDGDTNYNGKFKGKATLTADKSSTTAYIHLSSLTSEDSAVYFCARWGHYDEAMDDWGQGTSVTVSS VL: DVVMTQTPLSLPVSLGDQASISCRSSQSLVHSNGKTYLHWYVQKPGQSPKLLIYKISNRFSGVPDRFSGSGSGTDFTLKISRVEAEDLGVYFCSQITHVPWTFGGGTKLESK | 36500 MFI | 3360 MFI | 328 MFI | 21000 MFI | 604 MFI | 663 MFI | 44400 MFI | 823 MFI | 596 MFI | 1090 MFI
4 | TM-2 (antibody, V domains shown) VH: HIQLVQSGPELKKPGETVKISCKASGYTFTEYPMHWVKQAPGKGFRWMGMIYTNTGEPTYAAEFKGRFAFSLETSASTGYLQINNLKNEDSATYFCVTAGYWGQGTLVTVSA VL: QIVLTQSPAILSASPGEKVTMTCRASSSVSYIHWFLQKPGSSPKPWIYATSNLASGVPFRFIGSGSGTSYSLTISGVEAEDSATYYCQQWSSNPSTFGAGTKLELK | 55500 MFI | 1440 MFI | 1410 MFI | 4730 MFI | 2900 MFI | 1090 MFI | 29300 MFI | 1890 MFI | 2530 MFI | 3360 MFI
5 | TM-6 (antibody, V domains shown, mouse IgG (hybridoma)) VH: QVQLQQSGAELVKPGASVKLSCKASGYTFTEYTIHWVKQRSGQGLEWIGWFYPGSTYIDYNEKFKDKATLTADKSSSTVYLELSRLTSEDSAVYFCARHEEDYSNWFPFWGQGTLVTVSA VL: DIQMSQSSSYLSVSLGGRVTITCKASDHINNWLAWYQQKPGNAPRLLISGATSLETGVPSRFSGSGSGKDYTLSITSLQTEDVATYYCQQYWSSPYTFGGGTKLEIK | 581 MFI | 294 MFI | 304 MFI | 327 MFI | 371 MFI | 418 MFI | 393 MFI | 1100 MFI | 520 MFI | 544 MFI
6 | TM-7 (antibody, V domains shown) VH: EVQLQQSGPVLVKPGPPVKISCKASGFTFTDYYIHWVKLSHGKSLEWIGLVYPYNGDTDYNQKFKGKATLTVDTSSSTAYMELNSLTSEDSAVYYCARTYYANSPDYWGQGTTVTVSS VL: DIVMTQSPSSLSVSAGEKVTMSCKSSQSLLNSGNQRNYLAWYQQKPGQPPKLLIYGASTRESGVPDRFTGSGSGTDFTLTISNVQAEDLAVYYCQNDHSYPLTFGAGTKLELK | 40800 MFI | 1670 MFI | 442 MFI | 9870 MFI | 1200 MFI | 883 MFI | 40000 MFI | 647 MFI | 1070 MFI | 1810 MFI
7 | TM-3 (antibody, V domains shown) VH: QVTLKESGPGIVQPSQTLSLTCSFSGFSLNTLGRGVGWIRQPSGKGLEWLAKIWWNDDKFYYPALKSRLTISKDTSKNQIFLKIANVDTADSATYYCARIAGGTGAAYWGQGTTLTVSS VL: DIVMTQAAFSNPVTLGTSASISCRSSKSLLHSNGITYLYWYLQKPGQSPQLLISQMSSLASGVPDRFSSGGSGTDFTLRISRVEAEDVGVFYCAQNLELPWTFGGGTKLELK | 82300 MFI | 7700 MFI | 1080 MFI | 48700 MFI | 1980 MFI | 4840 MFI | 89100 MFI | 1800 MFI | 2690 MFI | 7670 MFI
8 | TM-9 (antibody, V domains shown) VH: EVQLVESGGDLVKPGGSLKLSCVASGFTFSGYGMSWVRQTPDKRLEWVATISSGSFYIYYPDSVKGRLTVSRDNAKNTLYLQMSSLKSEDTAIYYCARQNFYYGCEDYWGQGTTLTVSS VL: DIVMTQAAFSNPVTLGTSASISCRSSKSLLHSNGITYLYWYLQKPGQSPQLLIYQMSNLASGVPNRFSSSGSGTDFTLRISRVEAEDVGVYYCAQNLELPWTFGGGTKLEIK | 56400 MFI | 3940 MFI | 1540 MFI | 28300 MFI | 2710 MFI | 4880 MFI | 62100 MFI | 1990 MFI | 2540 MFI | 7090 MFI
9 | TM-13 (antibody, V domains shown) VH: QVQLQQSGAELVKPGASVKMSCKASGYTFTTFPIEWMKQSHGKGLEWIGNFHPYNDDTKYNEKFKGKATLTVDKSSSTVYLDLSRLTSDDSAVYYCARYFYGGMDYWGQGTSVTVSS VL: DIQMTQSPASLSVSVGETVTITCRASENIYSSLGWYQQKQGESPQLLVFAATNLADGVPSRFSGSGSGTQYSLKINSLQSEDFGTYYCQHLWSIPWTFGGGTRLEIK | 67500 MFI | 2900 MFI | 787 MFI | 19100 MFI | 927 MFI | 1950 MFI | 67100 MFI | 1260 MFI | 1380 MFI | 3890 MFI
10 | TM-14 (antibody, V domains shown, mouse IgG (hybridoma)) VH: QVQLQQSGPELVRPGTSVKVSCKASGYAFTNYLIEWVKQRPGQGLEWIGVINPGGGNTDYSEKFKDKATLTADKSSNTAYIQLSSLTSEDSAVYFCARSPYSSYVGYAVDYWGQGTSVTVSS VL: DIQMTQSPSSLSASLGERVSLTCRASQDIGSNLNWLQQEPDGTIKRLIYATSSLDSGVPKRFSGSRSGSDYSLTISSLESEDFVVYYCLQYASSPRTFGGGTRLEIK | 1190 MFI | 314 MFI | 270 MFI | 364 MFI | 300 MFI | 409 MFI | 680 MFI | 896 MFI | 307 MFI | 438 MFI
11 | TM-5 (antibody, V domains shown) VH: QVQLQQSGTELARPGASVKVSCKASGYIFTTYGITWVKQRGGQGLEWIGEIYPRSDNTYYNEKFKDKATLTADKSSSTAYMELRSLTSEDSAVYFCARSKGSGTGDYWGQGTTVTVSS VL: DIQMTQSPASLSASVGETVTITCRASENIYIYLAWYQQKQGKTPQLLVYNGKMLAENVPSRFSGSGSGTQFSLKINSLQPEDFGSYYCQHHYGSPPAFGAGTKLELK | 59300 MFI | 2180 MFI | 866 MFI | 10800 MFI | 1610 MFI | 1970 MFI | 64500 MFI | 1170 MFI | 1740 MFI | 4800 MFI
12 | TM-8 (antibody, V domains shown, mouse IgG (hybridoma)) VH: QIQLVQSGPELKKPGETVKISCKASGYTFTDYPMHWVKQAPGKGFKWMGVIYTDTGEPKYAEVFKGRFAFSLETSASTAYLQINNLKNEDTATYFCVRRLAYWGQGTLVTVSA VL: DIKMTQSPSSMYASLGERVTITCKASQDINSYLSWFQQKPGKSPKTLIFRANRLVDGVPSRFSGSGSGQDYSLTISSLEYEDMGIYYCLQYDEFPLTFGAGTKLEMK | 465 MFI | 301 MFI | 304 MFI | 305 MFI | 370 MFI | 393 MFI | 317 MFI | 554 MFI | 568 MFI | 492 MFI
13 | TM-15 (antibody, V domains shown, mouse IgG (hybridoma)) VH: QVQLQQPGAEFVRPGASVKLSCKASGYTFTNYWITWVKQRPGHGLEWIGDIYPGSGNSNYNESFKRKATLTVDTSSSTAYMHLSSQTSEDSAVYFCARKAYGGFPYWGQGTLVTVSA VL: DIQMTQSPASLSVSVGETVTITCRVSENIYNNLAWYQQKQEKSPQLLVFAATNLADGVPSRFSGSGSGTQFSLKINSLQSEDFGTYYCQHFWDTPFTFGSGTKLEIK | 63100 MFI | 584 MFI | 382 MFI | 2060 MFI | 470 MFI | 650 MFI | 14300 MFI | 938 MFI | 660 MFI | 1980 MFI
